Data on 18 molecules can be found in patent US20180222987A1.

Substitutions are numbered along the chain they refer to.

This test has as its target Macaca fascicularis CD3ε/δ-Fc fusion heterodimer (Macaca fascicularis) (UniProt Q95LI8). Put plainly: SPR single point, hybridoma supernatant.

Sequence of Macaca fascicularis CD3ε/δ-Fc fusion heterodimer (Macaca fascicularis) (chain, as listed by the source mutant, chain 1 of 2): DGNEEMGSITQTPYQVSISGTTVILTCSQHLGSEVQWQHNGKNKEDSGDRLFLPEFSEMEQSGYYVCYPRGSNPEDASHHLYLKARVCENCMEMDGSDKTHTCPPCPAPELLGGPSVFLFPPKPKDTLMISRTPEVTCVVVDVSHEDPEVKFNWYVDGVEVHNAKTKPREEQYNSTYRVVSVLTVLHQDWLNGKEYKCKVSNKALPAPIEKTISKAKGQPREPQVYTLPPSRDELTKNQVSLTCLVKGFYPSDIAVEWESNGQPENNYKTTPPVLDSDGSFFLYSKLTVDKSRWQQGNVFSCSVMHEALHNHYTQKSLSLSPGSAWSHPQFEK
Sequence of Macaca fascicularis CD3ε/δ-Fc fusion heterodimer (Macaca fascicularis) (Q95LI8 22-105, stated change not applied, chain 2 of 2): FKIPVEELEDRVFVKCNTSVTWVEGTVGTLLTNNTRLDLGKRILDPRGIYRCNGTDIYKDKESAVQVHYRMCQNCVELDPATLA

B1: 13H2-C3 anti-CD3 antibody (antibody, V domains shown)
VH: EEELVETGGSLVQPGKSLKLTCATSGFTFSNAWMHWVRQSPDKQLEWVAQIKAKSNNYATYYAESVKGRFTISRDDSKSSVYLQMNNLKEEDTAIYYCRYVHYGLAPMDAWGQGTSVTVSS
VL: DVVMTQTPVSLSVSLGGQVSISCRSSQSLVHNNGNTYLSWYLQKAGQSPQLLIYKVSNRFSGISDRFSGSGSGTDFILKISRVEPDDLGVFYCGQGTQYPFTFGAGTKLELK
For the molecule B1, the RU at 25 nM came out at 7 RU.

B2: 6C9-C9 anti-CD3 antibody (antibody, V domains shown)
VH: AVQLVESGGGLVRPKESLKISCAASGFTFRNAAMYWVRQAPGKGLEWVARIRTQPNNYAKYYADSVKDRFTISRDDSKSMVYLQMDNLKTEDTAMYYCTGLVVTAMDAWGQGTSVTVSS
VL: DIQMTQSPSFLSASVGDRVTINCKASQNINKYLNWYQQKLGEAPKLLIYVTNNLQTGIPSRFSGSGSGTDYTLTISSLQPEDVATYFCLQHRSMYTFGTGTKLELK
For the molecule B2, the RU at 25 nM worked out at 32 RU.

B3: 18H11-F10 anti-CD3 antibody (antibody, V domains shown)
VH: EVQLVESGGGLVQPGRSLKLSCAASGFIFSDYYMAWVRQAPKKGLEWVATISISGSRTYYPDSVKGRFTVSRDNAKSSLYLQMNSLKSEDTATYYCATNNPGGWFVYWGQGTLVTVSS
VL: NIQMTQSPSLLSASVGDRVTLSCKAGQNINNDLAWYQQKLGEAPRLLIYNANSLQTGIPSRFSGSGSGADFTLTISSLQPEDVATYFCQQYSSGDTFGAGTKLELK
B3 registered an RU at 25 nM of 55 RU.

B4: 8H2-F3 anti-CD3 antibody (antibody, V domains shown)
VH: QIQLVQSGPELKKPGESVKISCKASGYTFTDFAMNWVKQAPGNGLKWMGWINTQTGKPTYADGFKQRFVFSLETSASTIYLQINNLNIEDTATYFCTRGALASVGQGVMVTVSS
VL: DVVMTQTPVSLSVAIGQPASISCKSSQSLVGTSGKTYLNWLLQRPGQSPKRLIYLVSKLDSGIPDRFSGSGSETDFTLKISRVETDDLGVYYCLQGSHFPLTFGSGTKLEIK
B4 registered an RU at 25 nM of 40 RU.

B5: 11F9-F8 anti-CD3 antibody (antibody, V domains shown)
VH: EVQLVETGGTLVQPGKSLKLTCATSGFTFSNAWMHWVRQSPEKQLEWVAQIKAKSNNYATYYAESVKGRFTISRDDSKTSVYLQLNSLREEDTAIYYCRGTQYGYNPFDYWGQGVMVTVSS
VL: DVVLTQTPVSLSVSLGGQVSISCRSSQSLVHNNGNTYLSWSLQKPGQSPQVLIYKVSNRFSGISNRFSGSGSGTDFTLKISRVEPDDLGVYYCGQGAHYPFTFGSGTKLEIK
Molecule B5 yielded an RU at 25 nM of 16 RU.

B6: 5B1-G2 anti-CD3 antibody (antibody, V domains shown)
VH: EVQVVETGGSLVQPGKSLKLTCATSGFSFSNAWMHWVRQSPEKQLEWVAQIKDKANNYATYYAESVKGRFTISRDDSKGSIYLQMNSLKEEDTAVYYCRGLYYGLFPSDYWGQGVMVTVSS
VL: B1 VL with Q43L, A45P, S70G, I77T, V83L, V90I, F91Y, A105S, L111I
The molecule B6 displayed an RU at 25 nM of 0.5 RU.

B7: 4B4-D7 anti-CD3 antibody (antibody, V domains shown)
VH: EVQLVETGGRLVQPGRSLKLTCATSGFTFSNAWMHWVRQSPEKQLEWVAQIKARSNNYATYYAESVKGRFTISRDDSKSTIYLQMNSLKEEDTAIYYCRGTYYASKPFDYWGQGVMVTVSS
VL: B5 VL with L4M, N32D, K44R, I63T, N65D, S68T, A97T, H98Q
For the molecule B7, the RU at 25 nM came out at 14 RU.

B8: 13C1-F6 anti-CD3 antibody (antibody, V domains shown)
VH: B5 VH
VL: B1 VL with T7S, K44R, A45S, F60L, I77T, V83I, F91Y, A105S, K108R, L111I
As for B8, the RU at 25 nM was 15.5 RU.

B9: 20E5-F10 anti-CD3 antibody (antibody, V domains shown)
VH: EVQLVETGENLVQPGKSLRLTCATSGFSFSNAWMHWIRQSPEKQLEWVAQIKDKSNNYATYYAESVNGRFTISRDDSKSSIYLHMDNLKEEDSAIYYCRYVHYGVRFFYTMDVWGQGTSVTVSS
VL: B5 VL with L4M, G17D, S25P, S41Y, Q50H, V51P, N65D, A97T, H98Q
B9 came in with an RU at 25 nM of 8 RU.

B10: 11D7-C3 anti-CD3 antibody (antibody, V domains shown)
VH: B6 VH with V4F, S28T, D53A, A55S, G79S, I81V, V95T, F106S
VL: B5 VL with L4M, S41Y, V51L, N65D, A97T
The molecule B10 yielded an RU at 25 nM of 10 RU.

B11: 16F8-A7 anti-CD3 antibody (antibody, V domains shown)
VH: VETGGNLVQPGKSLKLTCATSGFTFSNAWMHWVRQSPEKQLEWVAQIKAKSNNYATYYAESVKGRFTISRDDSKSSVYLQMNSLKEEDTAIYYCRYVNYGLAPMDVWGQGTSVTVSS
VL: B1 VL with A45P, I63F, I77T, F91Y
B11 registered an RU at 25 nM of 22.5 RU.

B12: 12G3-E8 anti-CD3 antibody (antibody, V domains shown)
VH: EVRVVETGGSLVQPGKSLKLTCATSGFTFSLAWMHWVRQSPEKKLEWVAQIKDKANNYATYYAESVKGRFTISRDDSKRSVYLQMNRLKEEDTAIYYCRGVYYGFSMTPFDYWGQGVMVTVSS
VL: B1 VL with V3A, A45P, L51V, T74A, I77T, F91Y
In turn, B12 had an RU at 25 nM of 17 RU.

B13: 18G9-H11 anti-CD3 antibody (antibody, V domains shown)
VH: EVQLVETGGSLVQPGKSLKLTCATSGFTFSNAWIQWVRQSPEKQLEWVAQIKAKSNNYATYYAESVKGRFTISRDDSKSSVYLQMNSLKEEDTALYYCTWRHYYSSHTMDAWGQGTLVTVSS
VL: B1 VL with A45P, I77T, E84A, D86T, F91Y, T97S
B13 registered an RU at 25 nM of -7 RU.

B14: 11F3-B9 anti-CD3 antibody (antibody, V domains shown)
VH: B1 VH with E2V, E3Q, K19T, D42E, S79R, N87S, H102N, A110V
VL: B1 VL with N32D, A45P, I63F, I77T, F91Y
On to B14, for which the RU at 25 nM amounted to 17 RU.

B15: 10F4-C10 anti-CD3 antibody (antibody, V domains shown)
VH: EVQLVETGGSLVQPGKSLKITCATSGFTFSNAWMHWVRQSPEKQLEWVAQIKAKSNNYATYYAESVKGRFTISRDDSKSSIYLQMNSLKEEDTAIYYCRAVNYGNYPLDYWGQGVMVTVSS
VL: B1 VL with Y41C, A45P, I77T, F91Y
The molecule B15 came in with an RU at 25 nM of 27 RU.

B16: 10E6-G6 anti-CD3 antibody (antibody, V domains shown)
VH: B5 VH with T10G, P14S, F29V, S30T, A59E, T79S, L85M, R89K
VL: B5 VL with L4M, T7S, N35Y, S41Y, L52F, N65D, V83I, A97T
Consider B16, for which the RU at 25 nM stood at 0 RU.

B17: 4E7-C9 anti-CD3 antibody (antibody, V domains shown)
VH: EVQVVETGGSLVQPGKSLKLTCATSGFTFSNAWMHWVRQSPEKQLEWVAQIKDKSNNYATYYAESLKGRFTISRDDPKRSIYLQMNSLREEDTAIYYCRYVHYGIGYAMDAWGQGTSVTVSS
VL: B1 VL with V30E, A45P, L51P, I77T, F91Y, A105P
As to B17, the RU at 25 nM turned out to be 10 RU.

B18: 3H6-D2 anti-CD3 antibody (antibody, V domains shown)
VH: EVQLVETGGRLVQPGKSLKLTCATSGFTFSNAWMHWVRQSPEKQLEWVAQIKDKSNNYATYYAESVKGRFTISRDDSKSIIYLQMNSLKEEDTAIYYCRALTYYGYKRDAMDGWGHGTSVTVSS
VL: B1 VL with A45P, I77T, F91Y
B18 registered an RU at 25 nM of 7 RU.
